From the supplement of paper PMC10126150
± gives the standard deviation of the averaged measurements.

These sequences were tested on ATP (assay: switch fluorescence ratio, 500 uM ATP over buffer (Cy3 cluster intensity, sum of 5 cycles each) (fold (ratio)); higher = stronger signal-on switching upon ATP binding; sequences stand for … in TCGTCGGCAGCGTCAGATGTGTATAAGAGACAGTTTTTTTTTTTTTTTTTTTTTTTTT…TC). Settings: aptamer strand: ATP DNA aptamer (quencher-CACCTGGGGGAGTATTGCGGAGGAAGG + anchor), 100 nM annealed; ATP concentration: 500 uM.
In short: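 For every switch-domain sequence, the fluorescence ratio is the mean of per-cluster values, each being summed target-cycle Cy3 intensity over summed buffer-cycle Cy3 intensity. Clusters outside 100-1000 RFU were excluded. On a modified Illumina MiSeq flow-cell, the Cy3-labelled switching-strand clusters were annealed to 100 nM quencher-labelled ATP aptamer, imaged in selection buffer and then after 15 min with 500 uM ATP at 22 °C. Five such cycles were run, with NaOH stripping and re-annealing between them.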
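Note: ATP exposure 15 min at 22 °C before imaging.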

Row | Sequence | switch fluorescence ratio
1 | CATCGCGGTT | 1.07 ± 0.022
2 | CATCGGGACG | 1.04 ± 0.053
3 | CATCGGGGGT | 1.29 ± 0.67
4 | CATCGGTAGA | 1.02 ± 0.017
5 | CATCTATCCG | 0.963 ± 0.012
6 | CATCTCTTGC | 1.07 ± 0.036
7 | CATCTGGGGG | 1.04 ± 0.054
8 | CATCTGTTGT | 0.9856 ± 0.0092
9 | CATGAAAAAT | 1 ± 0.011
10 | CATGAAGATG | 0.98 ± 0.012
11 | CATGAATAG | 0.994 ± 0.011
12 | CATGAATATG | 1.01 ± 0.03
13 | CATGAATATT | 0.99 ± 0.037
14 | CATGACCTTT | 1.04 ± 0.016
15 | CATGAGAAGA | 0.999 ± 0.029
16 | CATGAGACCG | 1.03 ± 0.016
17 | CATGAGGAGT | 1.01 ± 0.0022
18 | CATGATGAGC | 0.9668 ± 0.0079
19 | CATGATTATG | 0.972 ± 0.012
20 | CATGATTTGG | 0.982 ± 0.028
21 | CATGCAAATA | 1.07 ± 0.034
22 | CATGCATTTT | 1.09 ± 0.079
23 | CATGCGAATA | 1.1 ± 0.033
24 | CATGCGCGGA | 1.147 ± 0.0013
25 | CATGCGCTTC | 2.39 ± 0.12

Row | Sequence | switch fluorescence ratio
26 | CATGCTGGGT | 1.0358 ± 0.001
27 | CATGCTTGGG | 0.999 ± 0.012
28 | CATGCTTTTG | 1.013 ± 0.0021
29 | CATGGAACCT | 1.92 ± 0.11
30 | CATGGATAGC | 0.963 ± 0.012
31 | CATGGATGGC | 1.06 ± 0.03
32 | CATGGGCTGG | 0.9965 ± 0.001
33 | CATGGGGGCT | 0.964 ± 0.024
34 | CATGGGGGTT | 0.991 ± 0.025
35 | CATGGGGTGC | 1.04 ± 0.024
36 | CATGGTATGT | 1.01 ± 0.038
37 | CATGGTGAGC | 0.956 ± 0.041
38 | CATGTAAGGG | 1.003 ± 0.0053
39 | CATGTACGTG | 1.0359 ± 9.4e-05
40 | CATGTAGAGG | 0.976 ± 0.033
41 | CATGTATGTT | 1.01 ± 0.012
42 | CATGTATTGA | 0.964 ± 0.024
43 | CATGTCTCTC | 1.02 ± 0.032
44 | CATGTTACGG | 1.055 ± 0.0065
45 | CATGTTGTAT | 0.98166 ± 0.00075
46 | CATTAAGCTG | 1 ± 0.12
47 | CATTAATTGT | 1.025 ± 0.0034
48 | CATTACAGGG | 1.01 ± 0.023
49 | CATTACCGAG | 1.049 ± 0.0037
50 | CATTAGAATC | 0.997 ± 0.028

Row | Sequence | switch fluorescence ratio
51 | CATTAGGTCT | 0.981 ± 0.038
52 | CATTATAGGC | 1.004 ± 0.002
53 | CATTATCATT | 0.97 ± 0.018
54 | CATTATTATT | 0.9975 ± 0.0058
55 | CATTCCGTTC | 1.42 ± 0.017
56 | CATTCGAATA | 1.08 ± 0.037
57 | CATTCGTCGA | 1.2 ± 0.04
58 | CATTCGTTGA | 1.05 ± 0.08
59 | CATTCGTTTG | 0.96 ± 0.0097
60 | CATTCTGATC | 1 ± 0.056
61 | CATTGAATGG | 1 ± 0.015
62 | CATTGATGAA | 0.988 ± 0.06
63 | CATTGTAAGT | 1 ± 0.025
64 | CATTTAGACG | 1.01 ± 0.11
65 | CATTTATTTG | 1.01 ± 0.014
66 | CATTTATTTT | 1.01 ± 0.044
67 | CATTTCGGCG | 0.999 ± 0.044
68 | CATTTCGTAA | 1.18 ± 0.02
69 | CATTTCTTG | 0.985 ± 0.029
70 | CATTTGAGCC | 0.973 ± 0.013
71 | CATTTGGTCC | 1.008 ± 0.0012
72 | CATTTGTGGC | 0.961 ± 0.058
73 | CATTTGTTTT | 1.02 ± 0.021
74 | CATTTTAGAG | 0.98256 ± 0.00032
75 | CATTTTAGTG | 1 ± 0.0021

Row | Sequence | switch fluorescence ratio
76 | CATTTTCTAG | 1.03 ± 0.044
77 | CATTTTGTGG | 0.987 ± 0.012
78 | CATTTTTAAC | 0.977 ± 0.014
79 | CATTTTTGAT | 1.01 ± 0.02
80 | CATTTTTGTT | 0.979 ± 0.031
81 | CATTTTTTT | 0.99009 ± 0.00046
82 | CCAAAAAGTG | 1.03 ± 0.031
83 | CCAAAACAGC | 1.028 ± 0.0022
84 | CCAAAAGGCA | 1.0416 ± 0.00044
85 | CCAAAGATTG | 0.993 ± 0.064
86 | CCAAAGGGAC | 1.089 ± 0.0061
87 | CCAAATGGTG | 1.16 ± 0.021
88 | CCAACAGGGA | 1.112 ± 0.0014
89 | CCAACCAAGG | 1.16 ± 0.056
90 | CCAACGGGCA | 1.08 ± 0.031
91 | CCAAGCACTT | 1.45 ± 0.14
92 | CCAAGCTTGT | 1 ± 0.041
93 | CCAAGGCGAT | 2.33 ± 1.8
94 | CCAAGGCTTT | 1.03 ± 0.026
95 | CCAAGGGGCG | 0.987 ± 0.0077
96 | CCAAGGGTAT | 0.9873 ± 0.0019
97 | CCAAGTCCTG | 0.97 ± 0.092
98 | CCAATGTACT | 1.36 ± 0.05
99 | CCAATGTCTC | 1.08 ± 0.013
100 | CCAATTTTGG | 0.977 ± 0.013

Row | Sequence | switch fluorescence ratio
101 | CCACAAGGGG | 1.02 ± 0.019
102 | CCACACGAGA | 1.18 ± 0.066
103 | CCACACTGAT | 1.025 ± 0.0025
104 | CCACATTGGA | 1.001 ± 0.01
105 | CCACGAGATA | 1.115 ± 0.0033
106 | CCACTTATGC | 1.13 ± 0.089
107 | CCAGAATTAA | 0.976 ± 0.011
108 | CCAGACGTTT | 1.037 ± 0.0073
109 | CCAGCCCGGG | 1.008 ± 0.0051
110 | CCAGCCGGGG | 1.06 ± 0.075
111 | CCAGCCTAGT | 0.98408 ± 0.0008
112 | CCAGCTTCTG | 1 ± 0.065
113 | CCAGGAAGGT | 1.0204 ± 0.00069
114 | CCAGGAGGAG | 1 ± 0.027
115 | CCAGGCTATT | 1.04 ± 0.026
116 | CCAGGGAGGT | 1 ± 0.034
117 | CCAGGGGTGC | 1.48 ± 0.05
118 | CCAGGGTATA | 1.03 ± 0.032
119 | CCAGGGTGGG | 1.03 ± 0.12
120 | CCAGGGTTTT | 1.06 ± 0.1
121 | CCAGGTGTCT | 2.16 ± 0.26
122 | CCAGTAGAGC | 1.01 ± 0.034
123 | CCAGTCGTCT | 1.02 ± 0.026
124 | CCAGTGGCGA | 1.16 ± 0.039
125 | CCAGTGGTTG | 0.9817 ± 0.0056

Row | Sequence | switch fluorescence ratio
126 | CCAGTGTAGA | 1.01 ± 0.0052
127 | CCAGTGTGGT | 1.07 ± 0.074
128 | CCAGTGTTAG | 1.03 ± 0.013
129 | CCATAAAGGG | 1.07 ± 0.098
130 | CCATAGGGGA | 1.0339 ± 0.00023
131 | CCATATCGAC | 1.05 ± 0.05
132 | CCATATTTGG | 1.033 ± 0.0063
133 | CCATCAAGTG | 1.108 ± 0.0049
134 | CCATCGCCCT | 1.17 ± 0.061
135 | CCATCGCCGG | 1 ± 0.081
136 | CCATCGGACA | 1.016 ± 0.0064
137 | CCATCGTAAC | 2.28 ± 0.37
138 | CCATGAGTGT | 0.997 ± 0.032
139 | CCATGATGGT | 1.014 ± 0.0084
140 | CCATGATTTG | 0.9922 ± 0.0042
141 | CCATGCTTGT | 1.03 ± 0.035
142 | CCATGGGGTG | 1.25 ± 0.037
143 | CCATTAAGTC | 1.02 ± 0.045
144 | CCATTGGGTT | 1.02 ± 0.031
145 | CCATTTACGT | 1.04 ± 0.025
146 | CCATTTTATT | 0.988 ± 0.031
147 | CCATTTTCAT | 0.99 ± 0.041
148 | CCATTTTTTG | 0.993 ± 0.028
149 | CCCAATCGGT | 1.05 ± 0.027
150 | CCCAATGATC | 1.52 ± 0.043

Row | Sequence | switch fluorescence ratio
151 | CCCAATTATT | 1.016 ± 0.0048
152 | CCCACTGGGA | 1.32 ± 0.39
153 | CCCAGCAGGT | 1.9 ± 0.18
154 | CCCAGGACGC | 1.397 ± 0.0036
155 | CCCAGGTTAG | 2.9 ± 0.2
156 | CCCAGTATGG | 1.001 ± 0.0082
157 | CCCATTGGGG | 1.03 ± 0.011
158 | CCCATTGTAA | 1.04 ± 0.025
159 | CCCCCGGGGG | 1.91 ± 0.15
160 | CCCCCGTTCC | 1.72 ± 0.2
161 | CCCCGACTTT | 1.07 ± 0.018
162 | CCCCGTAGTC | 4.6 ± 0.3
163 | CCCCGTGTAT | 2.48 ± 0.046
164 | CCCCGTTTCG | 1.08 ± 0.046
165 | CCCCTGGAAT | 1.08 ± 0.03
166 | CCCCTTAGCG | 1.09 ± 0.0067
167 | CCCCTTGTGA | 1.72 ± 0.04
168 | CCCGAAGGTA | 1.01 ± 0.024
169 | CCCGAATCCT | 1.06 ± 0.034
170 | CCCGATGAGC | 1.05 ± 0.025
171 | CCCGCTAAGG | 1.19 ± 0.028
172 | CCCGGAGGCA | 1.057 ± 0.004
173 | CCCGGCTGGT | 0.9956 ± 0.0095
174 | CCCGGGGGT | 1.13 ± 0.2
175 | CCCGGGGTTT | 1.31 ± 0.36

Row | Sequence | switch fluorescence ratio
176 | CCCGGGTGAT | 4 ± 0.3
177 | CCCGGGTTGT | 1.16 ± 0.12
178 | CCCGGTTTTT | 1.06 ± 0.022
179 | CCCGTATGTT | 1.03 ± 0.018
180 | CCCTAATAGA | 1.03 ± 0.026
181 | CCCTAGTGTG | 2.97 ± 2.6
182 | CCCTATATAG | 1.01 ± 0.011
183 | CCCTCTCGGT | 1.037 ± 0.0028
184 | CCCTGAGGGA | 1.18 ± 0.086
185 | CCCTGGACGA | 1.07 ± 0.016
186 | CCCTGGCACT | 1.12 ± 0.005
187 | CCCTGTTCGC | 1.03 ± 0.041
188 | CCGAAATTTA | 1.19 ± 0.02
189 | CCGAAGGACT | 1.02 ± 0.072
190 | CCGAAGTCCT | 1.25 ± 0.033
191 | CCGAATCCAG | 1.111 ± 0.0099
192 | CCGAATTTT | 1.02 ± 0.037
193 | CCGAGGGGGG | 1.25 ± 0.35
194 | CCGAGGTCGT | 1.17 ± 0.066
195 | CCGAGTAGAG | 1.4 ± 0.067
196 | CCGAGTGGGT | 1.44 ± 0.57
197 | CCGAGTTAGG | 1.068 ± 0.0066
198 | CCGAGTTTTT | 1.07 ± 0.086
199 | CCGATAGATG | 1.065 ± 0.0047
200 | CCGATGATTG | 1.08 ± 0.014
